Source: the supplement of paper PMC11865577

What was measured:
Experiment in all cases: pull-down binding Z-score (relative to library population); higher = stronger binding
[1] = test system: G-clamp-N3 (biotin conjugate); conditions: RNA library: Library-1 (pre-miRNA loops + repeats)
Outline: (§1)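 The RNA library, end-labelled with Cy5 or Cy3, was heat-folded in phosphate/NaCl/KCl buffer, and 1 μg was incubated at 25 °C for 60 min with streptavidin beads carrying 100 pmol of biotin-conjugated small molecule. Hot SDS released the bound RNA, which was then hybridised to a DNA barcode microarray for 20 h at 55.5 °C. For scoring binding, signal from beads alone was subtracted, replicate barcoded probes were averaged after discarding the highest and lowest, and each value was turned into a Z-score from the library mean and standard deviation.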

[2] = test system: TO-3-N3 (biotin conjugate); conditions: RNA library: Library-2
Outline: as §1

[3] = test system: TO-3-N3-2 (biotin conjugate); conditions: RNA library: Library-2
Outline: as §1

TO-N3 (biotin conjugate) = conditions: RNA library: Library-2
Outline: as §1

[4] = test system: TO-N3-2 (biotin conjugate); conditions: RNA library: Library-2
Outline: as §1

| Sequence | pull-down binding Z-score [1] | pull-down binding Z-score [2] | pull-down binding Z-score [3] | pull-down binding Z-score (TO-N3 (biotin conjugate)) | pull-down binding Z-score [4] |
| --- | --- | --- | --- | --- | --- |
| AGAACUUUGGUUUU [hsa-mir-4434] | 0.298 | -0.711 | -0.611 | -1.1 | -1.38 |
| AGAAGAACU [hsa-mir-378j] | -0.205 | -0.279 | -0.0957 | -0.272 | -0.277 |
| AGAAGACCU [hsa-mir-378g] | 0.213 | 0.421 | 0.241 | 0.403 | 0.244 |
| AGAAGCCCAGGUUCUGAAUCCCCU [hsa-mir-6734] | -1.05 | 0.393 | 0.23 | 0.628 | 0.901 |
| AGAAGCUAAAGUGUAGAUCAAACGCAUAAUGGCUGA [hsa-mir-4500] | -0.364 | 0.197 | 0.195 | 0.65 | 0.233 |
| AGAAGGCCUAUGGUGAUUUGCAUUCUU [hsa-mir-6875] | 0.997 | -0.099 | 0.226 | -0.072 | -0.105 |
| AGAAUUACUUAUCUGAGCCAAAGUAAUUCA [hsa-mir-1297] | -0.86 | 0.332 | 0.225 | 0.386 | -0.336 |
| AGACAGCCUGAGUUGGAGGCUCAUCUUCACUUCUUGCUGUGU [hsa-mir-3168] | -0.917 | 0.0963 | -0.221 | 0.262 | 0.168 |
| AGACCUUCCUUCCUUGUCU [hsa-mir-3163] | -1.91 | -0.452 | -0.206 | -0.558 | -0.35 |
| AGACUCUGGAUUUUACACUUGGAGUG [hsa-mir-887] | -0.423 | -0.461 | -0.196 | -0.207 | -0.0223 |
| AGAGAUGAGCAUAAAGUUUUU [hsa-mir-6086] | -1.36 | 0.0616 | -0.12 | -0.104 | -0.389 |
| AGAGCACCUCCUAGAGAAUGUUGAACUAAAGGUGCCC [hsa-mir-4723] | -0.814 | 0.573 | 0.528 | 0.813 | 1.16 |
| AGAGCGUGGGCUGGGGUUCAGGGACACCCUCU [hsa-mir-1229] | 1.46 | 1.15 | 0.738 | 1.57 | 1.86 |
| AGAGGCUGUGGGCAGGGGGAGAUGUGAAGGAAAGAACUAGGACCCAUUCAUCCACU [hsa-mir-6807] | 0.739 | 2.51 | 2.57 | 2.97 | 2.79 |
| AGAGUCCUGUUGUUGUAAGAUAGUGUCU [hsa-mir-550a-3] | 0.441 | -0.56 | -0.265 | -0.515 | -0.0681 |
| AGAUAGUGAAGUAGAUUAGCAUCUACU [hsa-mir-18a] | -0.59 | -0.484 | 0.201 | -0.387 | 0.0251 |
| AGAUAUAUAUAUACCUCAUAUGUAUAUGGUAUAC [hsa-mir-4777] | -1.5 | -1.2 | -0.53 | -1.37 | -0.944 |
| AGAUCACUUUUCUGCACUGGACAGUGAUCU [hsa-mir-3686] | -0.182 | -0.65 | -0.462 | -0.904 | -0.833 |
